The target of the assay is T1, EphA4 (Eph receptor A4) (human, UniProt P54764 20-986).
T1 construct: Endogenous EphA4 on the human pancreatic cancer cell line MIAPaca-2 (over-expressing); also called EpbA4
In words: flow cytometry on EphA4 over-expressing MIAPaca-2 cells. The procedure: Cancer cells (5×10⁶) were incubated at 4° C. for 30 minutes with the purified polyclonal antibody (pAb), monoclonal antibodies (mAb), rabbit IgG (the control for pAb) or mouse IgG (the control for mAb). Cells were washed with phosphate buffer solution (PBS) and then incubated at 4° C. for 30 minutes in FITC-labeled Alexa Fluor 488. The cells were again washed in PBS, and analyzed on a flow cytometer (FACSCalibur®, Becton Dickinson) and then analyzed by BD CellQuest™ Pro software (Becton Dickinson). Mean fluorescence intensity (MFI) was defined as a ratio of the flow cytometric intensity (intensity by each protein specific antibody/intensity by rabbit IgG).
Using EphA4 over-expressing cells, the binding ratios of anti-EphA4 antibodies on the cell surface were investigated.

T1 sequence (P54764 20-986): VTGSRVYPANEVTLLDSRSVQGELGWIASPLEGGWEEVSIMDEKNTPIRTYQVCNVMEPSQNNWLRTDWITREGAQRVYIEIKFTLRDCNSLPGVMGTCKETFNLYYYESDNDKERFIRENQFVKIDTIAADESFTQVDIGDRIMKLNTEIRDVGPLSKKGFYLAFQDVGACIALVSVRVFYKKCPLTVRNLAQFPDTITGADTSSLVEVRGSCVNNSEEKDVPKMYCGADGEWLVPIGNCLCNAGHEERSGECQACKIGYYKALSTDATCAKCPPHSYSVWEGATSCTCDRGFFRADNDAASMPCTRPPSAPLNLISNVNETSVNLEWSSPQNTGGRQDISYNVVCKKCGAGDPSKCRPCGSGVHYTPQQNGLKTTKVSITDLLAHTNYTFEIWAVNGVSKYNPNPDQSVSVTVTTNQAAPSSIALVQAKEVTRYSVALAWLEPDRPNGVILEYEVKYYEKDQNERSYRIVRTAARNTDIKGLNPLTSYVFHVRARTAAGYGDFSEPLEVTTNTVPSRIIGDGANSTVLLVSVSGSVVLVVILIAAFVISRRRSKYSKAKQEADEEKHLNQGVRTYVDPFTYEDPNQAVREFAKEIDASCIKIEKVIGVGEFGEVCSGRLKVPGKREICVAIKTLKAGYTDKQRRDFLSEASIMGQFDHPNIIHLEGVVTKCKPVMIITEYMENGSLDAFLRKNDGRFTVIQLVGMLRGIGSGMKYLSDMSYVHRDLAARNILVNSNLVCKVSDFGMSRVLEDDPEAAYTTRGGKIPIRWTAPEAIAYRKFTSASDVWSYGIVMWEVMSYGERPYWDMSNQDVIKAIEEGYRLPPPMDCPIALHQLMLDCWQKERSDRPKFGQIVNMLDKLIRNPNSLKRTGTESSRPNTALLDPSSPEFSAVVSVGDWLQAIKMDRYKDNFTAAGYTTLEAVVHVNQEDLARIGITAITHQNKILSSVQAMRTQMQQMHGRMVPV

B1: anti-EphA4 human antibody 65 (antibody, V domains shown)
VH: QVQLVQSGAEVKKPGASVKVSCKVSGYTLTELSMHWVRQAPGKGLEWMGGFDPEDGETIYAQKFQGRVTMTEDTSTDTAYMELSSLRSEDTAVYYCATAQPFHWGDDAFDIWGQGTMVTVSS
VL: not shown
notes: also called clone 65
Regarding B1, the MFI is 12.6 ratio (intensity by specific antibody / intensity by control IgG).

B2: anti-EphA4 human antibody 336 (antibody, V domains shown)
VH: QVQLQQSGPGLVKPSQTLSLTCAISGDSVSSNSAAWNWIRQSPSRGLEWLGRTYYRSKWYNDYAVSVKSRITINPDTSKNQFSLQLNSVTPEDTAVYYCARDSLRSFDYWGQGTLVTVSS
VL: QSVLTQPPSVSAAPGQKVTISCSGSSSNIGNNYVSWYQQLPGTAPKLLIYDNNKRPSGIPDRFSGSKSGTSATLGITGLQTGDEADYYCGTWDSSLSAVVFGGGTKLTVLG
In the case of B2, the MFI is 15.5 ratio (intensity by specific antibody / intensity by control IgG).

The record behind these values is patent publication US20090191211A1 (ONCOTHERAPY SCIENCE, published 2009).
